Laboratory results reported in patent publication US20070117220A1, “METHOD AND APPARATUS FOR MEASURING FLUORESCENCE POLARIZATION IN LAB-ON-A-CHIP” (priority 2005, published 2007).

B1: proteinase K: protease reacted with TMR-α-casein substrate (protein, UniProt P06873 106-384, looked up)
Proteinase K: AAQTNAPWGLARISSTSPGTSTYYYDESAGQGSCVYVIDTGIEASHPEFEGRAQMVKTYYYSSRDGNGHGTHCAGTVGSRTYGVAKKTQLFGVKVLDDNGSGQYSTIIAGMDFVASDKNNRNCPKGVVASLSLGGGYSSSVNSAAARLQSSGVMVAVAAGNNNADARNYSPASEPSVCTVGASDRYDRRSSFSNYGSVLDIFGPGTSILSTWIGGSTRSISGTSMATPHVAGLAAYLMTLGKTTAASACRYIADTANKGDLSNIPFGTVNLLAYNNYQA
B2: papain: protease reacted with TMR-α-casein substrate (protein, UniProt P00784 134-345, looked up)
Papain: IPEYVDWRQKGAVTPVKNQGSCGSCWAFSAVVTIEGIIKIRTGNLNEYSEQELLDCDRRSYGCNGGYPWSALQLVAQYGIHYRNTYPYEGVQRYCRSREKGPYAAKTDGVRQVQPYNEGALLYSIANQPVSVVLEAAGKDFQLYRGGIFVGPCGNKVDHAVAAVGYGPNYILIKNSWGTGWGENGYIRIKRGTGNSYGVCGLYTSSFYPVKN

Experiments:
TMR-α-casein [1] = assay: On-chip protease assay by fluorescence polarization of TMR-α-casein substrate, lab-on-a-chip with optical chopper; type: biochemical; settings: 1 μM TMR-α-casein final in channel; reaction time 5.1 seconds; FIGS. 10A-10D
Procedure: Next, the protease assays were carried out using an apparatus for measuring fluorescence polarization including the optical chopper of FIG. 2 on a lab-on-a-chip of glass composed of a channel 1 C1, in which substrates or enzymes flowed, and a channel 2 C2, in which the reaction occurred, the channels having a depth of 12 μm and a width of 79 μm as depicted in FIG. 8.
For on-chip protease assays, the substrates and the enzymes should mix completely prior to the enzyme reactions. […] […] Therefore, the reaction time was confirmed to be 5.1 seconds after mixing of the substrate with the enzymes.
Subsequently, to carry out the protease assays in the lab-on-a-chip,2 μM of TMR-α-casein (the final concentration in the channel was 1 μM) was placed in a substrate reservoir and the respective proteases were placed in an enzyme reservoir at increasing concentrations in the same manner as the comparative example. Then, the two substances were allowed to flow into a channel 2 C2, a main channel, to cause a reaction. Fluorescence polarization FP was then measured at the detection point, positioned 32 mm away from the junction, from which the substrates and the enzymes flowed in.
Again, it was noted that fluorescence polarization values plateaued when the concentration of the enzymes reached at the point generating a specific rate or more.

TMR-α-casein [2] = assay: Protease assay by fluorescence polarization of TMR-α-casein substrate, commercial fluorescence spectrometer; type: biochemical; settings: time course, varying enzyme concentrations (unit/mL); FIGS. 9A-9D
Procedure: Changes of fluorescence polarization FP were measured using the method and apparatus for measuring fluorescence polarization of the present invention, employing TMR-α-casein as a substrate, composed of TMR as a fluorescent probe and α-casein, a universal protein substrate reacted with various proteases.
First, TMR-α-casein, a fluorescently labeled substrate for proteases, was prepared by applying one of the well-known methods [Analytical Biochemistry (,1996) 243, 1-7] as follows.
10 mg/mL of α-casein (sigma) and 5 mg/mL of 5-carboxytetramethylrhodamine succinimidyl ester were mixed in 0.1 M sodium bicarbonate buffer solution (pH 9.0) for reaction at room temperature for two and a half hours. The resulting TMR-α-casein was purified by passing the reaction mixture over a HiTrap desalting column (Sephadex G-25 Amersham Bioscience), and used after quantitation of the amounts of protein and fluorescence.
Proteinase K, trypsin, papain and elastase were used as proteases to react at increasing concentrations. First, as a comparative example, the process that the TMR-α-casein substrate was degraded by the proteases was analyzed using a commercial fluorescence spectrometer (Perkin Elmer). […]

Molecule | change of fluorescence polarization values of TMR-α-casein with enzyme concentration (TMR-α-casein [1]) | change of fluorescence polarization values of TMR-α-casein as the reaction proceeded (TMR-α-casein [2])
B1 | decreased with increasing concentrations | decreased
B2 | decreased with increasing concentrations | decreased
